For six variants, response results are on record in publication PMC6892922.

B1: Ehg1-Cub-LV [S. cerevisiae] / NubG-Hip1 [S. cerevisiae] (parent)
chain 1: MRSFVTNNDIPVGYVTPKFPSLYWPINNSKYNTAFLYYISDIWKFSLYWTLIFNGAFYVTAGVYASLTHRKKAGSVWIFVMYVLYGGVQGLTTGTVMGFLIGAIYRSGLFSMSTWVPLCCAVVQILFDVVLSYSMVGSVM
chain 2: MPRNPLKKEYWADVVDGFKPATSPAFENEKESTTFVTELTSKTDSAFPLSSKDSPGINQTTNDITSSDRFRRNEDTEQEDINNTNLSKDLSVRHLLTLAVGGAIGTGLYVNTGAALSTGGPASLVIDWVIISTCLFTVINSLGELSAAFPVVGGFNVYSMRFIEPSFAFAVNLNYLAQWLVLLPLELVAASITIKYWNDKINSDAWVAIFYATIALANMLDVKSFGETEFVLSMIKILSIIGFTILGIVLSCGGGPHGGYIGGKYWHDPGAFVGHSSGTQFKGLCSVFVTAAFSYSGIEMTAVSAAESKNPRETIPKAAKRTFWLITASYVTILTLIGCLVPSNDPRLLNGSSSVDAASSPLVIAIENGGIKGLPSLMNAIILIAVVSVANSAVYACSRCMVAMAHIGNLPKFLNRVDKRGRPMNAILLTLFFGLLSFVAASDKQAEVFTWLSALSGLSTIFCWMAINLSHIRFRQAMKVQERSLDELPFISQTGVKGSWYGFIVLFLVLIASFWTSLFPLGGSGASAESFFEGYLSFPILIVCYVGHKLYTRNWTLMVKLEDMDLDTGRKQVDLTLRREEMRIERETLAKRSFVTRFLHFWC
B2: Ehg1-Cub-LV [S. cerevisiae] / NubG-Fur4 [S. cerevisiae] (parent)
chain 1: B1 chain 1
chain 2: MPDNLSLHLSGSSKRLNSRQLMESSNETFAPNNVDLEKEYKSSQSNITTEVYEASSFEEKVSSEKPQYSSFWKKIYYEYVVVDKSILGVSILDSFMYNQDLKPVEKERRVWSWYNYCYFWLAECFNINTWQIAATGLQLGLNWWQCWITIWIGYGFVGAFVVLASRVGSAYHLSFPISSRASFGIFFSLWPVINRVVMAIVWYSVQAYIAATPVSLMLKSIFGKDLQDKIPDHFGSPNATTYEFMCFFIFWAASLPFLLVPPHKIRHLFTVKAVLVPFASFGFLIWAIRRAHGRIALGSLTDVQPHGSAFSWAFLRSLMGCMANFSTMVINAPDFSRFSKNPNSALWSQLVCIPFLFSITCLIGILVTAAGYEIYGINYWSPLDVLEKFLQTTYNKGTRAGVFLISFVFAVAQLGTNISANSLSCGTDMSAIFPKFINIKRGSLFCAAMALCICPWNLMATSSKFTMALSAYAIFLSSIAGVVCSDYFVVRRGYIKLTHIYSHQKGSFYMYGNRFGINWRALAAYLCGVAPCLPGFIAEVGAPAIKVSDGAMKLYYLSYWVGYGLSFSSYTALCYFFPVPGCPVNNIIKDKGWFQRWANVDDFEEEWKDTIERDDLVDDNISVYEHEHEKTFI
B3: Ehg1-Cub-LV [S. cerevisiae] / NubG-Bap2 [S. cerevisiae] (parent)
chain 1: B1 chain 1
chain 2: MLSSEDFGSSGKKETSPDSISIRSFSAGNNFQSSSSEKTYSKQKSGSDKLIHRFADSFKRAEGSTTRTKQINENTSDLEDGVESITSDSKLKKSMKSRHVVMMSLGTGIGTGLLVANAKGLHYGGPAALIIGYILVSFVTYFMIQAAGEMAVTYPTLPANFNAYSSIFISKSFGFATVWLYCFQWLTVLPLELITASMTIQFWNDKINPDIYILIFYVFLVFIHFFGVKAYGETEFIFNCCKILMIAGFIILSIVINCGGAGNDGYIGATYWHNPGAFAGDTSIGRFKNVCYILVTAYFSFGGMELFALSVQEQSNPRKSTPVAAKRSIYRIVVIYLLTMILIGFNVPYNDDQLMGAGGSATHASPYVLAASIHGVKIVPHIINAVILISVVSVANSSLYAGPRLICSLAQQGYAPKFLDYVDREGRPLRALIVCCVFGVIAFVAASSKEEIVFTWLAAIAGLSELFTWTSIMLSHLRFRQAMKVQGRSLDELGYKATTGIWGSIYGVFFNILVFVAQFWVALAPLGNGGKCDAESFFQNYLAFPIWLAFYFGYMVYNRDFTLLNPLDKIDLDFHRRIYDPELMRQEDEENKEKLRNMSLMRKAYHFWC

The first assay covers variants of B1. The assay is described as follows: split-ubiquitin yeast two-hybrid (growth of strain NMY51). The note with it: with NubG-Hip1 [S. cerevisiae]; sub-panel Ehg1–Hip1; SC–His medium; 24 h starting at OD600 0.1; NubG-vector control est. 0.48; parent: 1.8; read off a plot.
As for chain 1 MRSFVTNNDIPVGYVTPKAPSLYWPINNSKYNTAFLYYISDIWKFSLYWTLIFNGAFYVTAGVYASLTHRKKAGSVWIFVMYVLYGGVQGLTTGTVMGFLIGAIYRSGLFSMSTWVPLCCAVVQILFDVVLSYSMVGSVM [chain 1 F19A], the response was 1.5 OD600.
chain 1 MRSFVTNNDIPVGYVTAKFASLYWPINNSKYNTAFLYYISDIWKFSLYWTLIFNGAFYVTAGVYASLTHRKKAGSVWIFVMYVLYGGVQGLTTGTVMGFLIGAIYRSGLFSMSTWVPLCCAVVQILFDVVLSYSMVGSVM [chain 1 P17A P20A]: the response came out at 1.3 OD600.

The same assay, now with this note: with NubG-Hip1 [S. cerevisiae]; sub-panel Ehg1–Hip1; SC–His–Ade medium; 24 h starting at OD600 0.1; NubG-vector control est. 0.20; parent: 0.73; read off a plot.
With chain 1 MRSFVTNNDIPVGYVTPKAPSLYWPINNSKYNTAFLYYISDIWKFSLYWTLIFNGAFYVTAGVYASLTHRKKAGSVWIFVMYVLYGGVQGLTTGTVMGFLIGAIYRSGLFSMSTWVPLCCAVVQILFDVVLSYSMVGSVM [chain 1 F19A], the response was 0.75 OD600.
For the variant chain 1 MRSFVTNNDIPVGYVTAKFASLYWPINNSKYNTAFLYYISDIWKFSLYWTLIFNGAFYVTAGVYASLTHRKKAGSVWIFVMYVLYGGVQGLTTGTVMGFLIGAIYRSGLFSMSTWVPLCCAVVQILFDVVLSYSMVGSVM [chain 1 P17A P20A], the response was found to be 0.5 OD600.

In the next assay the parent is B2. The assay is described as above. Particulars: with NubG-Fur4 [S. cerevisiae]; sub-panel Ehg1–Fur4; SC–His medium; 24 h starting at OD600 0.1; NubG-vector control est. 0.40; parent: 1.8; read off a plot.
As to chain 1 MRSFVTNNDIPVGYVTPKAPSLYWPINNSKYNTAFLYYISDIWKFSLYWTLIFNGAFYVTAGVYASLTHRKKAGSVWIFVMYVLYGGVQGLTTGTVMGFLIGAIYRSGLFSMSTWVPLCCAVVQILFDVVLSYSMVGSVM [chain 1 F19A], the response was 0.65 OD600.
Same read-out and setting: then chain 1 MRSFVTNNDIPVGYVTAKFASLYWPINNSKYNTAFLYYISDIWKFSLYWTLIFNGAFYVTAGVYASLTHRKKAGSVWIFVMYVLYGGVQGLTTGTVMGFLIGAIYRSGLFSMSTWVPLCCAVVQILFDVVLSYSMVGSVM [chain 1 P17A P20A], with 0.45 OD600.

The assay is the same for the next values; noted with them: with NubG-Fur4 [S. cerevisiae]; sub-panel Ehg1–Fur4; SC–His–Ade medium; 24 h starting at OD600 0.1; NubG-vector control est. 0.16; parent: 0.95; read off a plot.
In the case of chain 1 MRSFVTNNDIPVGYVTPKAPSLYWPINNSKYNTAFLYYISDIWKFSLYWTLIFNGAFYVTAGVYASLTHRKKAGSVWIFVMYVLYGGVQGLTTGTVMGFLIGAIYRSGLFSMSTWVPLCCAVVQILFDVVLSYSMVGSVM [chain 1 F19A], the response came to 0.22 OD600.
The same measure, in the same setting: then chain 1 MRSFVTNNDIPVGYVTAKFASLYWPINNSKYNTAFLYYISDIWKFSLYWTLIFNGAFYVTAGVYASLTHRKKAGSVWIFVMYVLYGGVQGLTTGTVMGFLIGAIYRSGLFSMSTWVPLCCAVVQILFDVVLSYSMVGSVM [chain 1 P17A P20A], with 0.17 OD600.

In the next assay the parent is B3. The description is as above. Particulars: with NubG-Bap2 [S. cerevisiae]; sub-panel Ehg1–Bap2; SC–His medium; 24 h starting at OD600 0.1; NubG-vector control est. 0.46; parent: 1.3; read off a plot.
With chain 1 MRSFVTNNDIPVGYVTPKAPSLYWPINNSKYNTAFLYYISDIWKFSLYWTLIFNGAFYVTAGVYASLTHRKKAGSVWIFVMYVLYGGVQGLTTGTVMGFLIGAIYRSGLFSMSTWVPLCCAVVQILFDVVLSYSMVGSVM [chain 1 F19A], the response was determined as 0.72 OD600.
For chain 1 MRSFVTNNDIPVGYVTAKFASLYWPINNSKYNTAFLYYISDIWKFSLYWTLIFNGAFYVTAGVYASLTHRKKAGSVWIFVMYVLYGGVQGLTTGTVMGFLIGAIYRSGLFSMSTWVPLCCAVVQILFDVVLSYSMVGSVM [chain 1 P17A P20A], the response is 0.5 OD600.

Staying with this assay, now noted: with NubG-Bap2 [S. cerevisiae]; sub-panel Ehg1–Bap2; SC–His–Ade medium; 24 h starting at OD600 0.1; NubG-vector control est. 0.17; parent: 0.45; read off a plot.
For chain 1 MRSFVTNNDIPVGYVTPKAPSLYWPINNSKYNTAFLYYISDIWKFSLYWTLIFNGAFYVTAGVYASLTHRKKAGSVWIFVMYVLYGGVQGLTTGTVMGFLIGAIYRSGLFSMSTWVPLCCAVVQILFDVVLSYSMVGSVM [chain 1 F19A], the response was determined as 0.27 OD600.
On the same count and under the same terms, then chain 1 MRSFVTNNDIPVGYVTAKFASLYWPINNSKYNTAFLYYISDIWKFSLYWTLIFNGAFYVTAGVYASLTHRKKAGSVWIFVMYVLYGGVQGLTTGTVMGFLIGAIYRSGLFSMSTWVPLCCAVVQILFDVVLSYSMVGSVM [chain 1 P17A P20A], with 0.17 OD600.
